Test results as given in publication PMC2844434.

Target: Human pro-insulin fused to the Gal4 DNA binding domain (human)
Sequence (P01308 25-110): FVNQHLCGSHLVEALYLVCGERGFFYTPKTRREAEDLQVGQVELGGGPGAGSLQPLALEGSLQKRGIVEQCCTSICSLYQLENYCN

Question: “Ligand domain of Schistosoma japonicum insulin receptor 2 (SjIR-2), Q7 to K399 (domain or fragment)” was tested. Which glucose level of adult S. japonicum worms cultured 24 h with 20% anti-LD1 + anti-LD2 mouse antisera (medium with foetal bovine serum as source of insulin; endogenous receptors), against normal serum did it give?
Answer: The glucose level of adult S. japonicum worms cultured 24 h with 20% anti-LD1 + anti-LD2 mouse antisera (medium with foetal bovine serum as source of insulin; endogenous receptors), against normal serum was 65 % reduction.

Question: How did the glucose level of adult S. japonicum worms cultured 24 h with 20% anti-LD1 + anti-LD2 mouse antisera (medium with foetal bovine serum as source of insulin; endogenous receptors), against normal serum turn out when “Ligand domain of Schistosoma japonicum insulin receptor 1 (SjIR-1), D59 to E411 (domain or fragment)” was run?
Answer: The glucose level of adult S. japonicum worms cultured 24 h with 20% anti-LD1 + anti-LD2 mouse antisera (medium with foetal bovine serum as source of insulin; endogenous receptors), against normal serum was 65 % reduction.
